{"source": "patent US10626404B2", "about": "“Mutant xylose-metabolizing enzyme and use thereof” (National Institute of Advanced Industrial Science and …, priority 2016, dated 2020)", "key": {"[1]": {"target": "Clostridium phytofermentans ISDg xylose isomerase (CpXI), wild type, SEQ ID NO: 11 (Lachnoclostridium phytofermentans, UniProt A9KN98)"}, "[2]": {"target": "T1, Clostridium phytofermentans ISDg xylose isomerase (CpXI, SEQ ID NO: 11) double mutant CpXI-T63I, V162A (Lachnoclostridium phytofermentans, UniProt A9KN98, T63I/V162A)", "T1 construct": "cell lysate", "experiment": "Xylose isomerase activity (kinetic parameters) in cell disruption solution, strain SS120", "type": "biochemical", "details": "cell disruptate after 24 h microaerobic fermentation, xylose 10-500 mM, pH 8.0, 30° C."}, "[3]": {"target": "T2, Clostridium phytofermentans ISDg xylose isomerase (CpXI, SEQ ID NO: 11) mutant CpXI-V162A, N303T (Lachnoclostridium phytofermentans, UniProt A9KN98, N303T/V162A)", "T2 construct": "cell lysate", "experiment": "Xylose isomerase activity (kinetic parameters) in cell disruption solution, strain SS92", "type": "biochemical", "details": "N303T vs wild type CpXI"}, "[4]": {"test_system": "Piromyces sp. E2 xylose isomerase mutant E15D, E114G, E129D, T142S, A177T and V433I", "details": "mutant vs wild type Piromyces sp. E2 xylose isomerase; NPL 10; cited from earlier work"}, "[5]": {"target": "T3, Clostridium phytofermentans ISDg xylose isomerase (CpXI, SEQ ID NO: 11) mutant CpXI-T63I (Lachnoclostridium phytofermentans, UniProt A9KN98, T63I)", "T3 construct": "cell lysate", "experiment": "Xylose isomerase activity (kinetic parameters) in cell disruption solution, strain SS82", "type": "biochemical", "details": "T63I vs wild type CpXI"}, "[6]": {"target": "T4, Clostridium phytofermentans ISDg xylose isomerase (CpXI, SEQ ID NO: 11) mutant CpXI-N303T (Lachnoclostridium phytofermentans, UniProt A9KN98, N303T)", "T4 construct": "cell lysate", "experiment": "Xylose isomerase activity (kinetic parameters) in cell disruption solution, strain SS105", "type": "biochemical", "details": "cell disruptate after 24 h microaerobic fermentation, xylose 10-500 mM, pH 8.0, 30° C.", "text": "(§1) The created mutant CpXI-V162A gene expression plasmid (Table 3: plasmid No. 31) and CpXI-N303T gene expression plasmid (Table 3: plasmid No. 32) were cleaved with BsiWI and used for transformation of strain SS29. The obtained strains were designated as strain SS104 (Table 4: strain No. 29) and strain SS105 (Table 4: strain No. 30), respectively."}, "[7]": {"substrate": "OC1OC[C@@H](O)[C@H](O)[C@H]1O", "experiment": "cells, lysate or membranes", "type": "biochemical, Clostridium phytofermentans ISDg", "details": "cell disruptate after 24 h microaerobic fermentation, xylose 10-500 mM, pH 8.0, 30° C."}, "[8]": {"substrate": "OC1OC[C@@H](O)[C@H](O)[C@H]1O", "experiment": "cells, lysate or membranes", "type": "biochemical, Clostridium phytofermentans ISDg", "details": "cell disruptate after 24 h microaerobic fermentation, xylose 10-500 mM, pH 8.0, 30° C.", "text": "as §1", "remark": "listed apart in the source"}, "[9]": {"substrate": "OC1OC[C@@H](O)[C@H](O)[C@H]1O", "experiment": "cells, lysate or membranes", "details": "other: wild type (SS81), cell disruptate after 24 h microaerobic fermentation, xylose 10-500 mM, pH 8.0, 30° C."}}, "data": [{"molecule": "OC1OC[C@@H](O)[C@H](O)[C@H]1O", "note": "(stereo partly drawn) [xylose, D-xylose]", "values": [{"measurement": "Vmax value", "setting": "[1]", "value": 0.66, "unit": "μmol/mg protein/min"}, {"measurement": "Vmax value", "setting": "[2]", "value": "0.104 ± 0.003", "unit": "μmol mg protein^−1 min^−1"}, {"measurement": "Vmax value compared with the wild type", "setting": "[3]", "value": "equivalent to the wild type"}, {"measurement": "Km value compared with the wild type", "setting": "[4]", "value": "approximately twice as high"}, {"measurement": "Vmax value larger than the wild type", "setting": "[4]", "value": 77, "unit": "%"}, {"measurement": "metabolic activity (Vmax) higher than the wild type", "setting": "[5]", "value": 38, "unit": "%"}, {"measurement": "Vmax value", "setting": "[6]", "value": "0.030 ± 0.001", "unit": "μmol mg protein^−1 min^−1"}]}, {"molecule": "Clostridium phytofermentans ISDg xylose isomerase (CpXI, SEQ ID NO: 11) mutant CpXI-T63I (Lachnoclostridium phytofermentans ISDg; T63I) (protein, cell lysate) MKNYFPNVPEVKYEGPNSTNPFAFKYYDANKVVAGKTMKEHCRFALSWWHTLCAGGADPFGVITMDRTYGNITDPMELAKAKVDAGFELMTKLGIEFFCFHDADIAPEGDTFEESKKNLFEIVDYIKEKMDQTGIKLLWGTANNFSHPRFMHGASTSCNADVFAYAAAKIKNALDATIKLGGKGYVFWGGREGYETLLNTDLGLELDNMARLMKMAVEYGRANGFDGDFYIEPKPKEPTKHQYDFDTATVLAFLRKYGLEKDFKMNIEANHATLAGHTFEHELAMARVNGAFGSVDANQGDPNLGWDTDQFPTDVHSATLAMLEVLKAGGFTNGGLNFDAKVRRGSFEFDDIAYGYIAGMDTFALGLIKAAEIIDDGRIAKFVDDRYASYKTGIGKAIVDGTTSLEELEQYVLTHSEPVMQSGRQEVLETIVNNILFR", "values": [{"measurement": "Km", "setting": "[7]; other: T63I (SS82)", "value": 29.2, "unit": "mM"}, {"measurement": "Vmax", "setting": "[7]; other: T63I (SS82)", "value": 0.091, "unit": "µmol/min/mg"}]}, {"molecule": "Clostridium phytofermentans ISDg xylose isomerase (CpXI, SEQ ID NO: 11) mutant CpXI-V162A (Lachnoclostridium phytofermentans ISDg; V162A) (protein, cell lysate) MKNYFPNVPEVKYEGPNSTNPFAFKYYDANKVVAGKTMKEHCRFALSWWHTLCAGGADPFGVTTMDRTYGNITDPMELAKAKVDAGFELMTKLGIEFFCFHDADIAPEGDTFEESKKNLFEIVDYIKEKMDQTGIKLLWGTANNFSHPRFMHGASTSCNADAFAYAAAKIKNALDATIKLGGKGYVFWGGREGYETLLNTDLGLELDNMARLMKMAVEYGRANGFDGDFYIEPKPKEPTKHQYDFDTATVLAFLRKYGLEKDFKMNIEANHATLAGHTFEHELAMARVNGAFGSVDANQGDPNLGWDTDQFPTDVHSATLAMLEVLKAGGFTNGGLNFDAKVRRGSFEFDDIAYGYIAGMDTFALGLIKAAEIIDDGRIAKFVDDRYASYKTGIGKAIVDGTTSLEELEQYVLTHSEPVMQSGRQEVLETIVNNILFR", "values": [{"measurement": "Km", "setting": "[8]; other: V162A (SS104)", "value": 29.5, "unit": "mM"}, {"measurement": "Vmax", "setting": "[8]; other: V162A (SS104)", "value": 0.063, "unit": "µmol/min/mg"}]}, {"molecule": "Clostridium phytofermentans ISDg xylose isomerase (CpXI), wild type, SEQ ID NO: 11 (Lachnoclostridium phytofermentans ISDg) (protein) MKNYFPNVPEVKYEGPNSTNPFAFKYYDANKVVAGKTMKEHCRFALSWWHTLCAGGADPFGVTTMDRTYGNITDPMELAKAKVDAGFELMTKLGIEFFCFHDADIAPEGDTFEESKKNLFEIVDYIKEKMDQTGIKLLWGTANNFSHPRFMHGASTSCNADVFAYAAAKIKNALDATIKLGGKGYVFWGGREGYETLLNTDLGLELDNMARLMKMAVEYGRANGFDGDFYIEPKPKEPTKHQYDFDTATVLAFLRKYGLEKDFKMNIEANHATLAGHTFEHELAMARVNGAFGSVDANQGDPNLGWDTDQFPTDVHSATLAMLEVLKAGGFTNGGLNFDAKVRRGSFEFDDIAYGYIAGMDTFALGLIKAAEIIDDGRIAKFVDDRYASYKTGIGKAIVDGTTSLEELEQYVLTHSEPVMQSGRQEVLETIVNNILFR", "values": [{"measurement": "Km", "setting": "[9]", "value": 46.9, "unit": "mM"}, {"measurement": "Vmax", "setting": "[9]", "value": 0.066, "unit": "µmol/min/mg"}]}, {"molecule": "Clostridium phytofermentans ISDg xylose isomerase (CpXI, SEQ ID NO: 11) mutant CpXI-N303T (Lachnoclostridium phytofermentans ISDg; N303T) (protein, cell lysate) MKNYFPNVPEVKYEGPNSTNPFAFKYYDANKVVAGKTMKEHCRFALSWWHTLCAGGADPFGVTTMDRTYGNITDPMELAKAKVDAGFELMTKLGIEFFCFHDADIAPEGDTFEESKKNLFEIVDYIKEKMDQTGIKLLWGTANNFSHPRFMHGASTSCNADVFAYAAAKIKNALDATIKLGGKGYVFWGGREGYETLLNTDLGLELDNMARLMKMAVEYGRANGFDGDFYIEPKPKEPTKHQYDFDTATVLAFLRKYGLEKDFKMNIEANHATLAGHTFEHELAMARVNGAFGSVDANQGDPTLGWDTDQFPTDVHSATLAMLEVLKAGGFTNGGLNFDAKVRRGSFEFDDIAYGYIAGMDTFALGLIKAAEIIDDGRIAKFVDDRYASYKTGIGKAIVDGTTSLEELEQYVLTHSEPVMQSGRQEVLETIVNNILFR", "values": [{"measurement": "Km", "setting": "[8]; other: N303T (SS105)", "value": 19.1, "unit": "mM"}, {"measurement": "Vmax", "setting": "[8]; other: N303T (SS105)", "value": 0.03, "unit": "µmol/min/mg"}]}, {"molecule": "Clostridium phytofermentans ISDg xylose isomerase (CpXI, SEQ ID NO: 11) double mutant CpXI-T63I, V162A (Lachnoclostridium phytofermentans ISDg; T63I/V162A) (protein, cell lysate) MKNYFPNVPEVKYEGPNSTNPFAFKYYDANKVVAGKTMKEHCRFALSWWHTLCAGGADPFGVITMDRTYGNITDPMELAKAKVDAGFELMTKLGIEFFCFHDADIAPEGDTFEESKKNLFEIVDYIKEKMDQTGIKLLWGTANNFSHPRFMHGASTSCNADAFAYAAAKIKNALDATIKLGGKGYVFWGGREGYETLLNTDLGLELDNMARLMKMAVEYGRANGFDGDFYIEPKPKEPTKHQYDFDTATVLAFLRKYGLEKDFKMNIEANHATLAGHTFEHELAMARVNGAFGSVDANQGDPNLGWDTDQFPTDVHSATLAMLEVLKAGGFTNGGLNFDAKVRRGSFEFDDIAYGYIAGMDTFALGLIKAAEIIDDGRIAKFVDDRYASYKTGIGKAIVDGTTSLEELEQYVLTHSEPVMQSGRQEVLETIVNNILFR", "values": [{"measurement": "Km", "setting": "[7]; other: T63I, V162A (SS120)", "value": 34.4, "unit": "mM"}, {"measurement": "Vmax", "setting": "[7]; other: T63I, V162A (SS120)", "value": 0.104, "unit": "µmol/min/mg"}]}, {"molecule": "Clostridium phytofermentans ISDg xylose isomerase (CpXI, SEQ ID NO: 11) mutant CpXI-V162A, N303T (Lachnoclostridium phytofermentans ISDg; N303T/V162A) (protein, cell lysate) MKNYFPNVPEVKYEGPNSTNPFAFKYYDANKVVAGKTMKEHCRFALSWWHTLCAGGADPFGVTTMDRTYGNITDPMELAKAKVDAGFELMTKLGIEFFCFHDADIAPEGDTFEESKKNLFEIVDYIKEKMDQTGIKLLWGTANNFSHPRFMHGASTSCNADAFAYAAAKIKNALDATIKLGGKGYVFWGGREGYETLLNTDLGLELDNMARLMKMAVEYGRANGFDGDFYIEPKPKEPTKHQYDFDTATVLAFLRKYGLEKDFKMNIEANHATLAGHTFEHELAMARVNGAFGSVDANQGDPTLGWDTDQFPTDVHSATLAMLEVLKAGGFTNGGLNFDAKVRRGSFEFDDIAYGYIAGMDTFALGLIKAAEIIDDGRIAKFVDDRYASYKTGIGKAIVDGTTSLEELEQYVLTHSEPVMQSGRQEVLETIVNNILFR", "values": [{"measurement": "Km", "setting": "[7]; other: V162A, N303T (SS92)", "value": 28.4, "unit": "mM"}, {"measurement": "Vmax", "setting": "[7]; other: V162A, N303T (SS92)", "value": 0.066, "unit": "µmol/min/mg"}]}]}
